Where “and” joins values, the source holds several entries; their conditions need not be identical. Equal values may be shown once.
Target: LDLR/TF chimeric protein with amino acids 1-374 of mature human LDLR fused to amino acids 20-698 of human transferrin (encoded by pEFBOS/LDLrTF1.S) (human)
Assay: microplate assay: chimeric protein (13.3 nM) held by coated HTF-14, LDL 0.5-50 µg/ml, detected with sheep anti-human LDL; the signal at 50 µg/ml is taken as the maximum

LDLR/TF chimeric protein with amino acids 1-374 of mature human LDLR fused to amino acids 20-698 of human transferrin (encoded by pEFBOS/LDLrTF1.S) (human), sequence (chain, as listed by the source mutant): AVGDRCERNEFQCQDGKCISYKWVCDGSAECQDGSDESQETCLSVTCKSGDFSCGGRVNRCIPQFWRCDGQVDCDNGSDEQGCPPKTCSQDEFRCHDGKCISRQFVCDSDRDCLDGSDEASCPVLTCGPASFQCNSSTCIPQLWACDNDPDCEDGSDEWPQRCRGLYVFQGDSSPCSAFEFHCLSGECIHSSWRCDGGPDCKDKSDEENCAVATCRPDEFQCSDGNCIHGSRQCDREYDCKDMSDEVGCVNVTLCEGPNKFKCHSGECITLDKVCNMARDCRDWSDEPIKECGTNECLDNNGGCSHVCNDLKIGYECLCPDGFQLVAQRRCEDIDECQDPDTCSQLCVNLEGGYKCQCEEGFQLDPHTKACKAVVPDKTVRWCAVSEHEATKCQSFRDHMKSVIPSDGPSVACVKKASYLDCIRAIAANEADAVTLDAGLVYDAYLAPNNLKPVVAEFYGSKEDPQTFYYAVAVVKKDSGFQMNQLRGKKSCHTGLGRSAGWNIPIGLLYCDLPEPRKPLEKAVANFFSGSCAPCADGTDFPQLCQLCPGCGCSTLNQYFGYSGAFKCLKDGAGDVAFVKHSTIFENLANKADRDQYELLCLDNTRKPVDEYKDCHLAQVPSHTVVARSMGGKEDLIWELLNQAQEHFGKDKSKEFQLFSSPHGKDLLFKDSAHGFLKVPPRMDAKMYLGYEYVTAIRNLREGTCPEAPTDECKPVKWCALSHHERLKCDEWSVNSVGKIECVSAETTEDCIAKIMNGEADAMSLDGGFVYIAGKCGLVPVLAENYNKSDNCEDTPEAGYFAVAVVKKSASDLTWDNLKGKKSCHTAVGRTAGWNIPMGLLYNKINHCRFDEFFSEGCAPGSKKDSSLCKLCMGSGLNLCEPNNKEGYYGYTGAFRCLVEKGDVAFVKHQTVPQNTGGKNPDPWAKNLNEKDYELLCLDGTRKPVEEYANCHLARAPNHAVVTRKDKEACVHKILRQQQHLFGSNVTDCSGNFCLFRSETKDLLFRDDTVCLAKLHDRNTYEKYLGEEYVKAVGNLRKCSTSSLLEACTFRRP

EC50: 1.6 µg/mL and 3.1 nM
Substance: human LDL (low density lipoprotein particle carrying one molecule of apolipoprotein B-100), P04114 28-4563

Reference: patent US6858578
